# Measurements published in patent publication US10876098B2, “Polynucleotide, host cell and a method to recombinantly produce the protein encoded by said polynucleotide having peroxygenative activity” (CONSEJO SUPERIOR DE INVESTIGACIONES CIENTIFICAS (CSIC), priority 2015, dated 2020).
# B1: PaDa-I-W24F: W24F variant obtained from the PaDa-I mutant, SEQ ID NO: 30 (protein)
# chain: MKYFPLFPTLVYAVGVVAFPDYASLAGLSQQELDAIIPTLEAREPGLPPGPLENSSAKLVNDEAHPFKPLRPGDIRGPCPGLNTLASHGYLPRNGVATPAQIINAVQEGFNFDNQAAIFATYAAHLVDGNLITDLLSIGRKTRLTGPDPPPPASVGGLNEHGTFEGDASMTRGDAFFGNNHDFNETLFEQLVDYSNRFGGGKYNLTVAGELRFKRIQDSIATNPNFSFVDFRFFTAYGETTFPANLFVDGRRDDGQLDMDAARSFFQFSRMPDDFFRAPSPRSGTGVEVVVQAHPMQPGRNVGKINSYTVDPTSSDFSTPCLMYEKFVNITVKSLYPNPTVQLRKALNTNLDFLFQGVAAGCTQVFPYGRD
# B2: JaWa-W24F: W24F variant obtained from the JaWa mutant, SEQ ID NO: 32 (protein)
# chain: MKYFPLFPTLVYAVGVVAFPDYASLAGLSQQELDAIIPTLEAREPGLPPGPLENSSAKLVNDEAHPFKPLRPGDIRGPCPGLNTLASHGYLPRNGVATPAQIINAVQEGFNFDNQAAIFATYAAHLVDGNLITDLLSIGRKTRLTGPDPPPPASVGGLNEHGTFEGDASMTRGDAFFGNNHDFNETLFEQLVDYSNRFGGGKYNLTVAGELRFKRIQDSIATNPNFSFVDFRFFTAYGETTFPANLFVDGRRDDGQLDMDAARSFFQFSRMPDDFFRAPSPRSDTGVEVVVQAHPMQPGKNVGKINSYTVDPTSSDFSTPCLMYEKFVNITVKSLYPNPTVQLRKALNTNLDFLFQGVAAGCTQVFPYGRD
# What was measured:
# [1] = cited from earlier work
# [2] = Activity of W24F variants on peroxidase substrates, flask culture supernatants; assay type: biochemical; details: all the tested substrates, relative to respective parental
# From the text: (§1) FIG. 5 W24F variants obtained by means of directed mutagenesis. A) Model built on the crystal structure of the AaeUPO1 enzyme (PDB access number: 2YOR), comprising the mutations of the JaWa variant as well as the W24F modification with respect to wild AaeUPO1. The model is shown without a surface, with a transparent surface and with an opaque surface, showing position W24. B) Activity of the W24F variants using different substrates with respect to their respective parentals, relativised to the PaDa-I activity. The experiments were carried out using 100 mL flask culture supernatants.
# [3] = Activity of W24F variants on peroxygenase substrates, flask culture supernatants; assay type: biochemical; details: relative to respective parental
# From the text: as §1
Molecule,solubility of the naphthalene in water [1] [µg/mL],reduction of peroxidase activity by the W24F mutation [2] [%],reduction in the activity on naphthalene and NBD by the W24F mutation [3] [%]
c1ccc2ccccc2c1 [naphthalene],31.7,,
B1,,60,50
B2,,60,50
